Experimental data: the DeepSol protein solubility set

assay: soluble on expression in E. coli; label from the status in PepcDB or PDB records

Sequence | soluble on expression in E. coli
MRVGQHTLQFANPPVIVATASVVGPKEGEGPLGDTFDMVIDDSYFGEETWEKAERKMLEEAVKMVIAKAQLKPQDIDFLLAGDLLNQTISANYAARSLGIPFLGLYGACSTMYEGMALAAMLIDGGFAHHVVAACSSHYDTAERQYRFPTEQGIQRPPTAQWTVTGAGAVLMAPVGNGPRITHATIGRVLDVGIKDPNDMGSAMAPAAVDTIVRHFQDTGRGPIDYDLIITGDLGRVGHEIATKLLGEKKYDVSKNYSDCGILIYDHERQDTHAGGSGCACSAVVFAGHLMGKLNEGRYKRILGVGTGALLSTTATQQGESIPGIGHGVVIEGLEHHHHHH | not soluble
MRVIFMRQVTKSKKIKILPYPEWLVKAGMSKGIDHDRQHLGIILAAGEMIKVRQVNAEYKEKLKLYLLNDNKNTQRSISFNTDWIELSVDAISVPFINTPYSDGIIPEIVFEYPDTSKLLPVYEKGEDESIFFESWDKQNAEFGVVESEYVIILIPEVSKDRLKSFSTSGGIDTVLGFYQDIFSFNNSLAGLSFEPQRYSDGNTRNRYFAKADKGGGGAAYYSNNWIASSSGSINTFWLSPNATNWGCLHEIAHGYQGGFIDDKYFSTREVWNNIYAACYQDVMLGAEKFNKGWLYNFGKQKEVEKSILNNINNGKEVNAWGERSKLYFIMLMLEKAGVNCFTHFNQIYRERKNTDQSVGSVLDMLSNSFATVENRVDVTLFLQMVGGHISKNQYQRNLFSHAKAVYPLNQLLQGDELTAVKKTLDLNSELSLVDVDSIEFTDIKSNLTLQFSIDDFAQIYGEELLILNGDNYVYNQSIMDKKQTLYNLPVGAYTLRIPTGRNKKYAPQINYLIVKNEDSQTQVDFVHRIGSPIVSQKISLQGLNDYTFATIFFDQENDTVSVDITKTKPHYHFPGMYARIRIKDKDNNELLNEVITGTNQSLSKNDFPLSSCYVIDIFHKEPGRVKLTPAYKGVIDNKSSYNEFIITPYGLQNIKLNNDPKVFLLENIKSAAEMLRSHPIMWHANFSEAKDNIYLAIDIFPSPQKEGLLEQYADCISSYYEKPNEDLGNAFSFIFKGINDREFLTTKLNLVTKKLEVKIVSGTPHSGFKRTYAVLRYFNADGNELLNLDIIGSKKQAGQEWVFPISGYGGEKLYLQHVEPKNRLVITNIMQGIRLSSRTSIQTYEIESLGLSRCT | not soluble
MRVKEQLLTLRAYVPGKNIEEVKREYGLSKIVKLASNENPFGCSARVTEALTSLASQYALYPDGHAFELRTQVAKHLGVKAEQLLFGSGLDEVIQMISRALLHEGTNVVMANPTFSQYHHHAVIEGAEVREVSLKDGIHDLDAMLQQVDDQTKIVWICNPNNPTGTYVEKQKLLSFLESVPKSALVIMDEAYYEYAGAEDYPQTLPLLEKYENLMVLRTFSKAYGLAAFRIGYAVGNTELIGQLEVARLPFNTSTVAQSVALAALEDQAFLQECVKKNEEGLHQYYAFCKEYNVFYYPSQTNFIFLKLGIPGNEAFERLMKKGYIVRSGAAFGIDDGIRITVGLKEENDEIIELLKELVNEQVQKEETYS | soluble
MRVLVTGGSGYIGSHTCVQLLQNGHDVIILDNLCNSKRSVLPVIERLGGKHPTFVEGDIRNEALMTEILHDHAIDTVIHFAGLKAVGESVQKPLEYYDNNVNGTLRLISAMRAANVKNFIFSSAATVYGDNPKIPYVESFPTGTPQSPYGKSKLMVEQILTDLQKAQPDWSIALLRYFNPVGAHPSGDMGEDPQGIPNNLMPYIAQVAVGRRDSLAIFGNDYPTEDGTGVRDYIHVMDLADGHVVAMEKLANKPGVHIYNLGAGVGNSVLDVVNAFSKACGKPVNYHFAPRREGDLPAYWADASKADRELNWRVTRTLDEMAQDTWHWQSRHPQGYPD | soluble
MRVYYYMNIEELKRVIKDQREYLESLEKQKIIERELPFNVEQYLSKPNILAILGVRRSGKSTLGYLLVREKNFAYIDFSDDRLVNFTDFDTLTKAFYELYGDFTHVLIDEPQYVNGWELFVNRLRKEKSVIITGSNSSLLSGELASALTGRHVDLILFPFSFKEYLTFRGVKVDLYSTKSISLIKNELENYLKEGGFPETLSLGKRIIPSIYNDIITKDVIGRYKIRDVVKFKEFVNSMVKYYSTEISVRKLANLLKISTRTIEEWLNAIQESYLLFFVRRYSRSPKQFNGQRKVYVIDAGIVNYLTSFSYGGLMENVVAIQLLRKNQLEGIYYLRGEDYEVDFVDEKNGELIQVSYVSSQDEINRNEIRSLVKGSQITEFNKLTIVSWDLEDEIIVEGKKIRIVPLWKYLI | soluble
MRYEEPVFRPPSEAFSLIVQATIGCSWNRCTFCGMYKMKKFRVRDIEEVKEDFRLAKEIYGDVRRVFLADGNALAADTDYLLEIADYANKLFNLERISCYATPQDILEKSKEELKEIRNAGIKLLYVGIESGDDEILERIRKGVSSNEIAEACMKAHECGFELSVTVLTGIGGKERSYKNARNTARLLNRISPKYTGVLTYIPVPNTPLYVKIKRGEFLLPNPLENLLELRWMVERIEARTIFRCNHASNYLPLKGTLPEDREKLLKAIDYAIAHPEVLKPEWLRGL | not soluble
MRYLTAGESHGPRLTAIIEGIPAGLPLTAEDINEDLRRRQGGYGRGGRMKIENDQVVFTSGVRHGKTTGAPITMDVINKDHQKWLDIMSAEDIEDRLKSKRKITHPRPGHADLVGGIKYRFDDLRNSLERSSARETTMRVAVGAVAKRLLAELDMEIANHVVVFGGKEIDVPENLTVAEIKQRAAQSEVSIVNQEREQEIKDYIDQIKRDGDTIGGVVETVVGGVPVGLGSYVQWDRKLDARLAQAVVSINAFKGVEFGLGFEAGYRKGSQVMDEILWSKEDGYTRRTNNLGGFEGGMTNGQPIVVRGVMKPIPTLYKPLMSVDIETHEPYKATVERSDPTALPAAGMVMEAVVATVLAQEILEKFSSDNLEELKEAVAKHRDYTKNY | soluble
MRYTMDIEFSQIHEMVYMHDIVNSDSKKKPRIPLKKFLNAENVLTQTTSWTLNSRYVNVNSVNKVNVKSKVKNSYISRSVNDEFSLTDDEINSFKETLVLSSIDSLSKLVLNNPLSVLFTSTVRRNNNRAKMNVEFDSWICTRCCLEHHHHHH | soluble
MSAAEIDEGVFETTATIDNGSFGTRTIRFETGRLALQAAGAVVAYLDDDNMLLSATTASKNPKEHFDFFPLTVDVEERMYAAGRIPGSFFRREGRPSTDAILTCRLIDRPLRPSFVDGLRNEIQIVVTILSLDPGDLYDVLAINAASASTQLGGLPFSGPIGGVRVALIDGTWVGFPTVDQIERAVFDMVVAGRIVEGDVAIMMVEAEATENVVELVEGGAQAPTESVVAAGLEAAKPFIAALCTAQQELADAAGKSGKPTVDFPVFPDYGEDVYYSVSSVATDELAAALTIGGKAERDQRIDEIKTQVVQRLADTYEGREKEVGAALRALTKKLVRQRILTDHFRIDGRGITDIRALSAEVAVVPRAHGSALFERGETQILGVTTLDMIKMAQQIDSLGPETSKRYMHHYNFPPFSTGETGRVGSPKRREIGHGALAERALVPVLPSVEEFPYAIRQVSEALGSNGSTSMGSVCASTLALLNAGVPLKAPVAGIAMGLVSDDIQVEGAVDGVVERRFVTLTDILGAEDAFGDMDFKVAGTKDFVTALQLDTKLDGIPSQVLAGALEQAKDARLTILEVMAEAIDRPDEMSPYAPRVTTIKVPVDKIGEVIGPKGKVINAITEETGAQISIEDDGTVFVGATDGPSAQAAIDKINAIANPQLPTVGERFLGTVVKTTDFGAFVSLLPGRDGLVHISKLGKGKRIAKVEDVVNVGDKLRVEIADIDKRGKISLILVADEDSTAAATDAATVTS | not soluble
MSAAQYARLVPKKYRSKTLPKIDRPWRPRVIAWAGPAAFYPNRFYEVDKWYKARIDKPEKLPEMHIIEPAEHMKSLKVLMQKSEIEQINIGFKRREVAGKAEKSAEDRIELERKSRHMQLKIDIDHLDVENLSIYRHFQVFDHLFGDNIFFENVQNLQVNFENDIVVHSGNVITANSTLKRPEITIESVGNGGGFNTLLMINLDGNALDLGKNGEIVQWMISNIPDGEAISAGSEIIDYLQPLPFYGTGYHRVAFVLFRHEKPVDFQIQGNSLDTRIHEISKFYKKHEATITPSAIRFFQTSYDNSVKMALHGLGMTSPLYEYEHRPALKPAQREFPEKPQPFDLYLDMYRDPKEVEQEMLEKRLAEVKLDYVKEPKWVDTDYVENKKKLPAWLHAKKLERDGVGHAKYHNDL | not soluble
MSAASEAVSGALFQHLFRIFSLFADQNEKGTFKPAQAEFLIDELLRELRRQTTPKVHDLPENVTFNEFLNLLQVIFPDREDLLIATNRVFERYVNHVIGKGFVLFRKLSQKRGCLPFKRRTEDWQFGWLQVLPGVAEIRKQNSDIDDIIQFDEDTVIEPPVIDEDASVWSVICNSTTAFQFSHLDPIMAQLFVKGFLTYWKLNLKYFFSDMRSARDFPTREELAVFDYKRSLKSRPTKEGKSRKELETERCRLESELEEEKKNRKDEEIVRGLTTRLLKQEMEKSEQMQQVIYELRSKLDNGENEAGVDDEDIVDVEMIEDEISEDVGENEEISITLPSREEKIQQYAYHLYATQAEEHVTSDDEEIWKQNYNLIVSTHFTDTMWKSCKPIVYCSEIVSQIVNQSPFIFLINLNNDLHNRATLGLTTYLVSYRFPCSFFLIELKMTKLRVGFIGYGHLGKFLVEKLRLLPEEFEIVKIWNRSVGEPGVQGLETLTAENLKDIDLVVEVAHPKIIADYGELILEHCDLFAGSPTCFANQELLEKLTKLSLSHGKKLLIPAGALWGANDIQKMADVGSLKGLTVTMIKHPTSFKLGSPLFEINEKAKLEETNETVLYEGSVRGLCPLAPNNVNTMAGGALAASNLGFDEVKAKLISDPKMTDWHVVEVRVEGDDGFEVITRRNNPAKPGAVTGQLTYYSFLSSIKESRYKPIGVQLC | not soluble
MSADAYHPPTTSPRLETLDVLSIGMSLDVFRQGQVWKALQEQNAAQAEALHVGSILPMDPKKYPTSADDKDMAYEKRQADALELGLKNFLEKWPIPTVTVVRGWDPSTPNLRFTPEETRESLSVKVNDLRVPAGLHWHRIANLQDGIICNDTPEGVLEALFSLFERNPDLPAVLVYANEGISMAGALSSRDVTLKSLGAVSGPRIPGTLTDAMVALIVGRPERVDWLRQFAPYTKVNENRIDPEFRGWGWRKPPVEFRPTPFIPQPWTERALEQWDALPVLARLHRPVSVPLTHPDTGERLKREALTAQLAAAWKTASAGLRPAPARLFYDGGLNATPLAELTPALGAAQSSLDLLDSRESYDLTQRLGDTGAASPFVGITLATMASYLNGDSSMVMPLRRKDQATLIGISSPTPGKKPVHDPFGVDLLPQTASGDGPPPSADPVAPASRLTTRLPPGEDYALEEFLSSLKPSTDWQDDL | not soluble
MSADENNLIWIDLEMTGLDPERDRIIEIATLVTDASLNILAEGPTIAVHQSDAQLALMDDWNVRTHTGSGLVDRVKASTMGERDAELATIEFLKTWVPAGKSPICGNSIGQDRRFLFKYMPELEAYFHYRYLDVSTLKELARRWKPEILAGFTKQGTHQAMDDIRESVAELAYYREHFIKL | not soluble
MSAFDIVLREGTVVDGTGADPFVADVAISGGRIAAIGPNLSRGTTEINASGQIVTPGFVDLHTHYDGQVTWDNRLAPSSYHGVTTAVIGNCGVGFAPCRRDAASRDAMVRLMEGVEDIPHPVLTEGLPWTWETFPDYLDFLASRTYDIDVAAYVPHAPLRVYVMGQRGADREPATQTDIAEMCRLLEQALDRGALGIATSRSLFHRSSDGTAIPTYQAAQAELMAFAEVLRAKGKGVFQIVEDIHVPGASLDNMRELARTSGRPLTFSIGTGNTGPYGYPRLLDELAAANAEGLVMKGQLMPRGIGMILGFELTLNPFYTTSTFARLAPLPLAERLEQLRRPEIRAAILSEPMDPDPALVLGRAVRDFDHMFLLGDDPDYEQPPERSIAGRAREAGITPEELAYDVMTEGESGGLLYLAMANYADGSLDAVGDILSHPDVVLGLGDGGAHVGTICDASYSTFALCHWARDRQRGRKTVADMVHRMTQATARVIGLEDRGELAVGKRADINVIDLAQLALRPPQVCHDLPAGGRRLIQRATGYSLTMLAGEIVLRDDEPTGLLPGRLIRASLEHHHHHH | not soluble
